Assay [1] addresses T1, FAM19A5 mutant M6 (human).
T1 construct: FAM19A5 with region 6 replaced by the consensus of FAM19A1-4; The entry already carries the changes
T1 chain: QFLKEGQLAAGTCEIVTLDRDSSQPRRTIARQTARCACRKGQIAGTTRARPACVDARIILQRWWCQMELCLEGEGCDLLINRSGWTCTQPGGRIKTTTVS
Kind of assay: ELISA on phage-displayed FAM19A5 mutants; y axis without label. (In general: In an ELISA, binding on a coated surface is turned into a signal by an enzyme label.)

The target in assay [2] is T2, FAM19A5 mutant M8 (human).
T2 construct: FAM19A5 with region 8 replaced by the consensus of FAM19A1-4; The entry already carries the changes
T2 chain: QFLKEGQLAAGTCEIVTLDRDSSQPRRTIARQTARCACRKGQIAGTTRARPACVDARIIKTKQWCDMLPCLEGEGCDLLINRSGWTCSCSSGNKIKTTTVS
Described as above.

For assay [3], the target named is T3, FAM19A5-M1.
T3 construct: also called FAM19A5 mutant M1
T3 FAM19A5 mutant: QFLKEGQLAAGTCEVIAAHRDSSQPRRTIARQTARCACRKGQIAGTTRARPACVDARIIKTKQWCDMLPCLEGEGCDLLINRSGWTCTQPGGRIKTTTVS
Description: ELISA on phage-displayed FAM19A5 mutants; y axis without label; no blank in the panel.

Assay [4] has as its target T4, FAM19A5-M4.
T4 construct: also called FAM19A5 mutant M4
T4 FAM19A5 mutant: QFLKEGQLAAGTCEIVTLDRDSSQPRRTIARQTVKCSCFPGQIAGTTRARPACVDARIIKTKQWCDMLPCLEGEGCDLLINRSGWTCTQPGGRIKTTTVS
The description is as above.

Assay [5] has as its target T5, FAM19A5-M2.
T5 construct: also called FAM19A5 mutant M2
T5 FAM19A5 mutant: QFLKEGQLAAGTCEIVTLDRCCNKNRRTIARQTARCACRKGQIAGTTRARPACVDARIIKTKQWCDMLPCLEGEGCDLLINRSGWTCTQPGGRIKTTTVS
The assay is described as above.

Assay [6] concerns the target T6, FAM19A5 mutant M7 (human).
T6 construct: FAM19A5 with region 7 replaced by the consensus of FAM19A1-4; The entry already carries the changes
T6 chain: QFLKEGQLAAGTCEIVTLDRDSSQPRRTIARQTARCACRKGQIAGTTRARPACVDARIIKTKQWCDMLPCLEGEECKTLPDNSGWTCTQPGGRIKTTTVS
Described as above.

Assay [7] concerns the target T7, FAM19A5-M3.
T7 construct: also called FAM19A5 mutant M3
T7 FAM19A5 mutant: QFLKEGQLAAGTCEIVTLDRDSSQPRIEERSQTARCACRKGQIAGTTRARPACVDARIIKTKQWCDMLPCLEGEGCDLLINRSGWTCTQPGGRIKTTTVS
The description is as above.

The target of assay [8] is T8, FAM19A5-M5.
T8 construct: also called FAM19A5 mutant M5
T8 FAM19A5 mutant: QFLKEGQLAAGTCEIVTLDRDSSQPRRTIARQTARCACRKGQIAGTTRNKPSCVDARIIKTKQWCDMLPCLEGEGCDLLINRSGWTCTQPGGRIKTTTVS
Described as above.

Assay [9] deals with T1, FAM19A5 mutant M6. Description: ELISA on phage-displayed FAM19A5 mutants; y axis without label.
The target of assay [10] is T6, FAM19A5 mutant M7. The description is as above.
The target of assay [11] is T2, FAM19A5 mutant M8. The description is as above.
Assay [12] deals with T3, FAM19A5-M1. Description: ELISA on phage-displayed FAM19A5 mutants; y axis without label; no blank in the panel, lowest bars about 0.05.
For assay [13], the target named is T4, FAM19A5-M4. The description is as above.
The target of assay [14] is T5, FAM19A5-M2. The description is as above.
Assay [15] deals with T7, FAM19A5-M3. The assay is described as above.
For assay [16], the target named is T8, FAM19A5-M5. Described as above.
The target in assay [17] is T1, FAM19A5 mutant M6. Description: ELISA on phage-displayed FAM19A5 mutants; y axis without label; no blank in the panel.

Like-named read-outs stand apart in the source and are kept apart here.

From patent US20250236663A1 (NEURACLE SCIENCE, published 2025) come the findings set out here.

B1: Anti-FAM19A5 (13B4) (antibody, V domains shown)
VH: QVQLQESGPGLVKPSGTLSLNCAVSGGSISSSNWWSWVRQPPGKGLEWIGEIYHGGTTNYNPSLKGRVTMSVDKTKNQFSLRLSSVTAVDTAVYYCARWQLVGGLDVWGQGTTVTVSS
VL: SYELTQPLSVSVSPGQTASITCSGDKLGNVYASWYQQKPGQSPTLVIYQDNKRPSGIPERFSGSNSGKTATLTISGTQALDEADYYCQAWDSSTAVFGGGTKLTVL
notes: Only variable domains are tied to the name
Consider B1, for which the binding result is given as “no binding” with FAM19A5 mutant M6 [1]; “no binding” with FAM19A5 mutant M8 [2]; “binds” with FAM19A5-M1 [3]; “binds” with FAM19A5-M4 [4]; “binds” with FAM19A5-M2 [5]; “binds” with FAM19A5 mutant M7 [6]. In addition, the binding result with FAM19A5-M3 [7] and with FAM19A5-M5 [8] was “binds” in each case.

B2: Anti-FAM19A5 (P2-A03) (antibody, V domains shown)
VH: QSVEESGGRLVTPGTPLTLTCTVSGFSLNNYDMSWVRQAPGKGLEYIGFMDTDGSAYYATWAKGRFTISRTSTTVDLKMTSPTTEDTATYFCARRGSSYYGGIDIWGPGTPVTVSL
VL: ELDLTQTPASVSEPVGGTVTIKCQASQSIGGNLAWYQQKPGQPPKLLIYRASTLASGVPSRFKGSGSGTDFTLTISDLECADAATYYCQSPAYDPAAYVGNAFGGGTELEIL
notes: as for B1
With B2, the binding result with FAM19A5 mutant M6 [9] is given as “no binding”; with FAM19A5 mutant M7 [10] it was “no binding”; with FAM19A5 mutant M8 [11], “no binding”; in the assay with FAM19A5-M1 [12], “binds”; in the assay with FAM19A5-M4 [13], “binds”; with FAM19A5-M2 [14] it was “binds”. The binding result with FAM19A5-M3 [15] and with FAM19A5-M5 [16] was “binds” in each case.

B3: Anti-FAM19A5 (13F7) (antibody, V domains shown)
VH: QVQLQEWGAGLLKPSETLSLTCAINAESFNGYSWTWIRQTPGKGLEWIGEISHFGSANYNPSLKSRATISADKSKNQFSLKLTSVTAVDTAVYYCARALRGTYSRFYYGMDVWGQGTTVTVSS
VL: DIVMTQTPLSLPVAPGEPASISCRSSQSLLHSNGYNYLDWYVQKPGQPPQLLIYLGSNRASGVPDRFSGSGSGTDFTLKISRVEAEDVGVYYCMQARQTPLTFGGGTKVEIK
notes: as for B1
Take B3: the binding result with FAM19A5 mutant M8 [2] was “no binding”; with FAM19A5-M1 [3], “binds”; in the assay with FAM19A5-M4 [4] it was “binds”; in the assay with FAM19A5 mutant M6 [17], “binds”; in the assay with FAM19A5-M2 [5], “binds”; with FAM19A5 mutant M7 [6] it was “binds”. The binding result with FAM19A5-M3 [7] and with FAM19A5-M5 [8] was “binds” throughout.
